This note sets out measurements from patent US10053716B2, “4-amino cinnamic acid production method using enzyme” (JAPAN SCIENCE AND TECHNOLOGY AGENCY, priority 2014, dated 2018).

Series [1] can be described thus: Resting cell reaction, production of cinnamic acid. Type of series: cell-based, Escherichia coli. The note with it: 4-aminophenylalanine alone as substrate. The procedure:
(§1) Escherichia coli was cultured at 37° C. using LB medium containing 100 mg/L ampicillin sodium or 100 mg/L kanamycin sulfate. One platinum loop of the cells was transferred from pregrown agar medium to a test tube containing 5 ml of culture medium, and shake-culture was conducted overnight at 120 rpm.
(§2) The precultured cells were transferred at 1% into 200 ml of the same medium in a baffle-equipped flask. Shake-culture was conducted at 37° C., a prescribed amount of IPTG was added at the point when the O.D. of the culture broth reached 0.3, and the culture was conducted at 28° C. for 12 hours to induce production of the target gene.
(§3) The main cultured cells were collected and rinsed once with 50 mM KPi Buffer (pH 7), and then suspended in 5 ml of a reaction mixture containing 20 mM substrate (4-aminophenylalanine, phenylalanine), for resting cell reaction. The reaction was conducted for 0 to 24 hours while shaking at 37° C. After the reaction, the supernatant was transferred to a centrifuge tube and recovered by centrifugal separation, and high-performance liquid chromatography (HPLC) was used in the following manner for quantitation of the reaction product.
HPLC (1200 infinity series: Hewlett Packard) was used for quantitation. A Purospher STAR RP-18 endcapped column was used, with a mixture of 20 mM potassium phosphate (pH 7.0) and 100% methanol as the eluent. […]

The nature of series [2]: 4APAL activity of Escherichia coli recombinant enzyme crude extract. Particulars: crude cell extract, BL21(DE3), 20 mM substrate. Format: biochemical. How it is done:
(§4) [Measurement of Enzyme Activity of Escherichia coli Recombinant Enzyme Crude Extract]
(§5) Escherichia coli was inoculated into 5 ml of LB medium containing 100 mg/L ampicillin sodium or 100 mg/L kanamycin sulfate, and cultured overnight at 37° C. It was then inoculated into 200 ml of the same culture medium and cultured to an O.D. of 0.6, isopropyl-β-thiogalactopyranoside (IPTG) was added to a final concentration of 0.5 mM, and culturing was conducted for 12 hours at 28° C.
(§6) The cultured cells were collected and suspended in 20 mM potassium phosphate buffer (pH 7.5) and subjected to ultrasonic disruption and the supernatant was used as a crude extract for activity measurement. The enzyme activity was measured and quantified by measuring the absorbance at the absorption wavelength of the reaction product using a spectrophotometer, for a period of 5 minutes. For PAL activity, the crude extract was added to 100 mM Tris Buffer (pH 8.0) and 20 mM phenylalanine, reaction was conducted, and production of cinnamic acid was measured by the change in absorbance at a wavelength of 290 nm, while for 4APAL activity, 20 mM 4-aminophenylalanine was used as substrate and the absorbance at a wavelength of 315 nm due to 4-aminocinnamic acid was measured and quantified.

A short description of series [3]: Km and kcat of recombinant purified enzyme for 4-aminophenylalanine. Format: biochemical. The note with it: purified His-tag enzyme. How it is done:
(§7) [Measurement of Enzyme Activity of Escherichia coli Recombinant Purified Enzyme]
(§8) Escherichia coli was inoculated into 5 ml of LB medium containing 100 mg/L ampicillin sodium or 100 mg/L kanamycin sulfate, and cultured overnight at 37° C. It was then used to inoculate 200 ml of the same culture medium and cultured to an O.D of 0.6, IPTG was added to a final concentration of 0.5 mM, and the incubation was continued for 12 hours at 28° C. The rotational speed during cultures was 120 rpm. The cultured cells were collected and suspended in 20 mM potassium phosphate buffer (pH 7.5) and subjected to ultrasonic disruption, and after centrifugal separation, the supernatant was purified using a His-Trap column and the enzyme activity was measured. The method of measuring the enzyme activity was according to the method for the crude extract described above.
(§9) Since pET28AtPAL4 and its mutants and RgPAL were produced as fusion proteins with His-tag in the Escherichia coli of Example 3, these enzymes could be easily purified using an affinity column. After culturing the producing cells, the cells were collected, disrupted and purified. The purified enzymes were used to calculate the Km values and kcat values.

A short description of series [4]: PAL activity of Escherichia coli recombinant enzyme crude extract. Format: biochemical. The note with it: crude cell extract, BL21(DE3), 20 mM substrate. The procedure: as §4, §5, §6
Series [5] is described as follows: Km and kcat of recombinant purified enzyme for phenylalanine. The note with it: purified His-tag enzyme. Type of series: biochemical. How it is done: as §7, §8, §9
Series [6] is described as follows: Resting cell reaction, production of 4-aminocinnamic acid. Type of series: cell-based, Escherichia coli. The procedure:
as §1, §2, §3
HPLC (1200 infinity series: Hewlett Packard) was used for quantitation. A Purospher STAR RP-18 endcapped column was used, with a mixture of 20 mM potassium phosphate (pH 7.0) and 100% methanol as the eluent. Measurement was carried out using absorption at wavelengths of 210 nm, 254 nm and 280 nm.
The Escherichia coli BL21-pET28a-RgPAL cells were prepared by the following method. Escherichia coli BL21-pET28a-RgPAL was shake cultured overnight at 37° C., 120 rpm using medium containing 100 mg/L kanamycin sulfate in 5 ml of LB medium (1% tryptone, 0.5% yeast extract, 0.5% sodium chloride). A 2 mL portion of the obtained cell culture solution was transferred into 200 ml of the same medium in a 500 mL-volume Erlenmeyer flask, and then shake cultured at 37° C., 120 rpm. IPTG was added when the optical density of the culture reached 0.3, and shake culture was conducted at 28° C., 120 rpm for 12 hours. The obtained Escherichia coli BL21-pET28a-RgPAL cells were collected by centrifugal separation and rinsed once with 50 mM potassium phosphate (pH 7), after which they were suspended in the same buffer containing 20 mM of substrate (4-aminophenylalanine or phenylalanine), and incubated for 24 hours while shaking at 37° C. After the reaction, the produced 4-aminocinnamic acid or cinnamic acid was quantified using HPLC. Reaction was also carried out in aqueous 50 mM potassium phosphate at pH 8 or 9, using the same method as above. […] In particular, the conversion efficiency increased by 12-fold at pH 7.

B1: RgPAL: PAL derived from the yeast Rhodotorula glutinis, amino acid sequence SEQ ID NO: 2 (protein)
chain: MAPSVDSIATSVANSLSNGLAGDLRKKTSGAGSLLPTTETTQIDIVERILADAGATDQIKLDGYTLTLGDVVGAARRGRTVKVADSPQIREKIDASVEFLRTQLDNSVYGVTTGFGGSADTRTEDAISLQKALLEHQLCGVLPTSMDGFALGRGLENSLPLEVVRGAMTIRVNSLTRGHSAVRIVVLEALTNFLNHGITPIVPLRGTISASGDLSPLSYIAASITGHPDSKVHVDGQIMSAQEAIALKGLQPVVLGPKEGLGLVNGTAVSASMATLALTDAHVLSLLAQANTALTVEAMVGHAGSFHPFLHDVTRPHPTQIEVARNIRTLLEGSKYAVHHETEVKVKDDEGILRQDRYPLRCSPQWLGPLVSDMIHAHSVLSLEAGQSTTDNPLIDLENKMTHHGGAFMASSVGNTMEKTRLAVALMGKVSFTQLTEMLNAGMNRALPSCLAAEDPSLSYHCKGLDIAAAAYTSELGHLANPVSTHVQPAEMGNQAINSLALISARRTAEANDVLSLLLATHLYCVLQAVDLRAMEFEHTKEFEPMVTDLLKQHFGALATADVEDKVRKSIYKRLQQNNSYDLEQRWHDTFSVATGAVVEALAGNEVSLASLNAWKVACAEKAIALTRTVRDSFWAAPSSASPALKYLSPRTRILYSFVREDVGVKARRGDVYLGKQEVTIGTNVSRIYEAIKDGRIAPVLVKMMA
modifications: RgPAL cDNA
B1: the “cinnamic acid produced compared to AtPAL4” value in series [1] amounted to 36%. Also, the results for the “4APAL activity compared to AtPAL4” value in series [2] and in series [2] (listed as enzyme of the invention) were 8 fold and “approximately 8 fold”, respectively. Also, in series [3], the “Kcat value, 4-Aminophenylalanine” value turned out to be 0.44 s⁻¹. In addition, the Km – broadly, the substrate concentration at which the rate is half of its maximum – in series [3] came to 22 mM; in series [5], 0.098 mM. Moreover, the “PAL activity compared to AtPAL4” value in series [4] was determined as 8.5 fold. The “Kcat value, Phenylalanine” value in series [5] is 3.4 s⁻¹. In series [6], the “4-aminocinnamic acid production reached” value is reported as “about 1 g/L”. Besides, the “4-aminocinnamic acid amount compared to AtPAL4” value in series [6] (4-aminophenylalanine alone as substrate) was 12 times. Also, in series [6] (pH 7), the “conversion efficiency increase compared to AtPAL4” value is on record as 12 fold. In addition, in series [6] (resting cells reaction), the “4-aminocinnamic acid produced, maximum” value was 825 mg/L.
